Results from publication PMC314469, “Protein Interaction Networks by Proteome Peptide Scanning” (PLoS Biology, 2004).

Experiments:
[1] = molecular target: T1, BOI2 SH3 domain (Saccharomyces cerevisiae); assay: SPR; conditions: modification not given
T1 chain: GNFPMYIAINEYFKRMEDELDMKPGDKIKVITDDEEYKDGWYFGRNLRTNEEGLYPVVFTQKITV

[2] = molecular target: T2, RVS167 SH3 domain (Saccharomyces cerevisiae); assay: SPR; conditions: modification not given
T2 chain: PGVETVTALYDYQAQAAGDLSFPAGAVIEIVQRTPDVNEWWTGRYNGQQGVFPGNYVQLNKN

[3] = molecular target: T3, YSC84 SH3 domain (Saccharomyces cerevisiae); assay: SPR; conditions: modification not given
T3 chain: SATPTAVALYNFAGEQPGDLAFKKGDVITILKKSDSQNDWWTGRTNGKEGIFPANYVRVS

[4] = molecular target: T4, YFR024C SH3 domain (Saccharomyces cerevisiae); assay: SPR; conditions: modification not given
T4 chain: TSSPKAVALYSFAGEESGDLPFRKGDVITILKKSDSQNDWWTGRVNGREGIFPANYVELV

[5] = molecular target: T5, GST-Abp1 SH3 domain (S. cerevisiae), P15891; assay: SPR; conditions: modification not given
T5 chain: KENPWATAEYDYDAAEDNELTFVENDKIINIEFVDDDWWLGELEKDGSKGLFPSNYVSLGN

[6] = molecular target: T6, Rvs167 SH3 (RV167_YEAST), P39743; assay: SPOT array
T6 chain: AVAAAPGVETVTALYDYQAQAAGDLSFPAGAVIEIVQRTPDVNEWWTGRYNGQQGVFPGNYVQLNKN

[7] = molecular target: T7, Boi2 SH3 (BOI2_YEAST), P39969; assay: SPOT array
T7 chain: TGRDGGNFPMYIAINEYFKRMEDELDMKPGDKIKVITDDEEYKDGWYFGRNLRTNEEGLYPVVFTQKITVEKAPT

[8] = molecular target: T8, Yfr024 SH3 (LSB3_YEAST), P43603; assay: SPOT array
T8 chain: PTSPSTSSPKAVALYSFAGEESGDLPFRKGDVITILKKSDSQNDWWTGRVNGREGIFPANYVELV

[9] = molecular target: T9, Abp1 SH3 (ABP1_YEAST), P15891; assay: SPOT array
T9 chain: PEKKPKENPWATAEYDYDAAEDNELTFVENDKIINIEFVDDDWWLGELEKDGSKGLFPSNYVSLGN

[10] = molecular target: T10, Boi1 SH3 (BOI1_YEAST), P38041; assay: SPOT array
T10 chain: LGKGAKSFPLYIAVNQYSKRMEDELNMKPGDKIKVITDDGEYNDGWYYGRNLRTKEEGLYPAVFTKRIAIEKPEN

[11] = molecular target: T11, Myo5 SH3 (MYO5_YEAST), Q04439; assay: SPOT array
T11 chain: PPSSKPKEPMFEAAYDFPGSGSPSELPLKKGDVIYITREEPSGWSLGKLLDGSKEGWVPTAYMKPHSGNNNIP

[12] = molecular target: T12, Yhr016c SH3 (YSC84_YEAST), P32793; assay: SPOT array
T12 chain: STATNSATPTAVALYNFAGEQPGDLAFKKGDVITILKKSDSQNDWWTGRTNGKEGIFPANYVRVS

[13] = molecular target: Sho1 SH3 (SHO1_YEAST), P40073; assay: SPOT array
Sequence of Sho1 SH3 (SHO1_YEAST), P40073 (P40073 295-366): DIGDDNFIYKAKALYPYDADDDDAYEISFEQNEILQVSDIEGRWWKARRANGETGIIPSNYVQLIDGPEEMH

| Binder | Kd [1] | Kd [2] | Kd [3] | normalised SPOT signal, Boehringer light units (BLU); mean over the file's lines of this peptide [6] | normalised SPOT signal, Boehringer light units (BLU); mean over the file's lines of this peptide [7] | normalised SPOT signal, Boehringer light units (BLU); mean over the file's lines of this peptide [8] | normalised SPOT signal, Boehringer light units (BLU); mean over the file's lines of this peptide [9] | normalised SPOT signal, Boehringer light units (BLU); mean over the file's lines of this peptide [10] | normalised SPOT signal, Boehringer light units (BLU); mean over the file's lines of this peptide [11] | normalised SPOT signal, Boehringer light units (BLU); mean over the file's lines of this peptide [12] | normalised SPOT signal, Boehringer light units (BLU); mean over the file's lines of this peptide [13] | also measured |
| --- | --- | --- | --- | --- | --- | --- | --- | --- | --- | --- | --- | --- |
| RAVPILPPRNNVEP | > 100 µM | 39 µM | 13 µM | – | – | – | – | – | – | – | – | – |
| RGPPPLPPRANVQP | > 100 µM | – | – | – | – | – | – | – | – | – | – | – |
| DIKTRSVPKIPSIE [DEM1 peptide …] | > 100 µM | > 100 µM | > 100 µM | – | – | – | – | – | – | – | – | Kd [4]: > 100 µM |
| RPLPQLPNRNNRPV | > 100 µM | – | 9.6 µM | – | – | – | – | – | – | – | – | Kd [5]: > 100 µM; Kd [4]: 8.9 µM |
| ASTKPEKPPVVKKP [INP52 peptide …] | – | – | – | – | – | – | – | – | – | – | – | Kd [5]: > 100 µM |
| PQQNRPLPQLPNRN | > 100 µM | 32 µM | – | – | – | – | – | – | – | – | – | – |
| KRNSKHAPFIPVKP [YPR095C 154-167] | – | – | – | 68.7 | 37 | 751 | 1030 | 412 | 382 | 150 | 86.4 | – |
| LKDPKSFPPPPLKP [YBR108W 80-93] | – | – | – | 78.4 | 45.6 | 62.9 | 124 | 55.3 | 253 | 6.5 | 78.9 | – |
| NAPERAVPILPPRN | > 100 µM | – | – | – | – | – | – | – | – | – | – | – |
| LQESKTVPQSPKKP [YOR058C 189-202] | – | – | – | 50.4 | 15.3 | 19.6 | 224 | 22.8 | 159 | 9.2 | 37.8 | – |
| GTTNRGPPPLPPRA | > 100 µM | – | – | – | – | – | – | – | – | – | – | – |
| EYSPRPSPWLPSKP [YDR151C 76-89] | – | – | – | 54.8 | 22.4 | 668 | 519 | 184 | 73.7 | 107 | 34.7 | – |
| NQPDLPPRKIMIP [YBR239C peptide …] | > 100 µM | 39 µM | 16 µM | – | – | – | – | – | – | – | – | Kd [5]: > 100 µM; Kd [4]: 22 µM |
